Reference: US20060264369, “Aptamers to von Willebrand Factor and their use as thrombotic disease therapeutics” (published 2006)
Numbering of substitutions follows the chain as printed.

T1: von Willebrand factor A1 domain (rabbit) (Oryctolagus cuniculus)
T1 chain: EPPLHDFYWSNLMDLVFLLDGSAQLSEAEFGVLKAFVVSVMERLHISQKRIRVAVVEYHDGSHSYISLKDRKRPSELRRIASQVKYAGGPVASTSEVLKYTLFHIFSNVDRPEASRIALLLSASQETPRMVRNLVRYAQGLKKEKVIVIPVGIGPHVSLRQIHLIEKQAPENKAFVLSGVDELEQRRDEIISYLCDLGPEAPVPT

B1: AMX201.B3 (ssRNA)
RNA: GGAGCGCACUCAGCCACAGAGCCCUGAGUGUAUGAUCGCCGAGAUCUAUCGAUGCUUUUUCGACCUCUCUGCUAGC
modifications: 2'-F pyrimidines
B2: AMX201.B11 (ssRNA)
RNA: GGAGCGCACUCAGCCACACCGAGGCUGGAUAUCUACGAGAGGAAGUGCUGCUUGAAUUUCGACCUCUCUGCUAGC
modifications: 2'-F pyrimidines
B3: AMX201.D10 (ssRNA)
RNA: B2 RNA with C20U, A55G
modifications: 2'-F pyrimidines
B4: AMX201.D4 (ssRNA)
RNA: GGAGCGCACUCAGCCACUGGGGCUGAUCUCGCACGAUAGUUCGUGUCAAGGAUGCGUUUUCGACCUCUCUGCUAGC
modifications: 2'-F pyrimidines
B5: AMX201.D3 (ssRNA)
RNA: GGAGCGCACUCAGCCACGCCCACGUCAAAUUAUAGUCUACUUUGAUGUGCCCGUGGUUUCGACCUCUCUGCUAGC
modifications: 2'-F pyrimidines
B6: AMX201.A8 (ssRNA)
RNA: GGAGCGCACUCAGCCACGCUGUACACUGAUGUUGUAACAUGUACCCCCUGGCUGUUUCGACCUCUCUGCUAGC
modifications: 2'-F pyrimidines
B7: AMX201.H11 (ssRNA)
RNA: GGAGCGCACUCAGCCACCCUGUCGUCUUUUGGUAGUCAGCCAAAAGCUAGUUGGUUGUUUCGACCUCUCUGCUAGC
modifications: 2'-F pyrimidines
B8: AMX201.H4 (ssRNA)
RNA: GGAGCGCACUCAGCCACUAACGGUUGAUCUCAGGACUAAUAGUCAACAAGGAUGCGUUUCGACCUCUCUGCUAGC
modifications: 2'-F pyrimidines
B9: ARC1223 (ssDNA)
DNA: GGCGTGCAGTGCCTTCGGCCGTGCGGTGCCTCCGTCACGCC
modifications: 2'-OMe C30, 3'-idT
B10: ARC1341 (mixed)
mixed: B9 DNA with T5U, T10U, T14U, T15U
modifications: 2'-OMe at 1-5, 9-19, 37-41, 3'-idT
B11: ARC1546 (mixed)
mixed: CCGGCCGTGCGGTGCCUCCGUCACGUUCCGUGCAGUGCCGG
modifications: 2'-OMe/deoxy composite, single PS, 3'-idT
B12: ARC1222 (ssDNA)
DNA: B9 DNA
modifications: 2'-OMe at 29; 3'-idT
B13: ARC1203 (ssDNA)
DNA: B9 DNA with T10U
modifications: 2'-OMe at 10 (mU); 3'-idT
B14: ARC1216 (ssDNA)
DNA: B9 DNA
modifications: 2'-OMe at 23; 3'-idT
B15: ARC1227 (ssDNA)
DNA: B9 DNA
modifications: 2'-OMe at 34; 3'-idT
B16: ARC1240 (ssDNA)
DNA: B9 DNA
modifications: 2'-OMe at 11,12,13,17,18,19; 3'-idT
B17: AMX238.F5 (ssDNA)
DNA: CTACCTACGATCTGACTAGCGGAATGAGAAGCTGGTGGATTGCTCAGGTCTGCTGGCTGCTTACTCTCATGTAGTTCC
B18: AMX236.C1 (ssDNA)
DNA: CTACCTACGATCTGACTAGCGGAATGAGAATGTTGGTGGATTGCTCAGGTCTGCTGGCTGCTTACTCTCATGTAGTTCC
B19: AMX238.A6 (ssDNA)
DNA: B18 DNA with T33C, T34A, G36A
B20: AMX237.C1 (ssDNA)
DNA: B18 DNA with A29G, T33C
B21: AMX236.E2 (ssDNA)
DNA: B18 DNA with A29T, T33C, G36A
B22: AMX238.A11 (ssDNA)
DNA: B18 DNA with A30G
B23: AMX236.C6 (ssDNA)
DNA: B18 DNA with A30G, T33C
B24: AMX237.E10 (ssDNA)
DNA: B18 DNA with T33C
B25: AMX238.F6 (ssDNA)
DNA: B18 DNA with A29T, T33C
B26: AMX237.B12 (ssDNA)
DNA: B18 DNA with T33C, T34A
B27: ARC1238 (ssDNA)
DNA: B9 DNA
modifications: 2'-OMe at 11,17,18; 3'-idT
B28: ARC1228 (ssDNA)
DNA: B9 DNA with T35U
modifications: 2'-OMe at 35 (mU); 3'-idT
B29: ARC1221 (ssDNA)
DNA: B9 DNA
modifications: 2'-OMe at 28; 3'-idT
B30: ARC1213 (ssDNA)
DNA: B9 DNA
modifications: 2'-OMe at 20; 3'-idT
B31: rRdY minimer SEQ 189 (mixed)
DNA: GGAGCCACACGACATTGGCGGGTTGTAATTACCACGCATGGCTCC
modifications: 2'-OH purines, deoxy pyrimidines
B32: rRdY minimer SEQ 183 (mixed)
DNA: GGGACGGGGTGGGTAGACGGCGGGTATGTCCC
modifications: 2'-OH purines, deoxy pyrimidines
B33: ARC1197 (ssDNA)
DNA: B9 DNA
modifications: 2'-OMe at 4; 3'-idT
B34: ARC1196 (ssDNA)
DNA: B9 DNA
modifications: 2'-OMe at 3; 3'-idT
B35: ARC1230 (ssDNA)
DNA: B9 DNA
modifications: 2'-OMe at 37; 3'-idT
B36: ARC1194 (ssDNA)
DNA: B9 DNA
modifications: 2'-OMe at 1; 3'-idT

The binders below were run against von Willebrand factor A1 domain (human) (Homo sapiens, UniProt P04275 SEQ:13-246) (assay: filter; 100 nM protein). Conditions: not given.
Excerpt: When a significant positive ratio of binding of RNA in the presence of human or rabbit vWF A1 domain versus in the absence of protein was seen, the pools were cloned using the TOPO TA cloning kit (Invitrogen, Cat.# 45-0641, Carlsbad, Calif.) according to the manufacturer's instructions. Round 9 and 12 pool templates were cloned and sequenced (125 total sequences), producing 48 unique clones. All unique clones were transcribed, desalted, 5-³²P end-labeled, and assayed in a 3-point dot blot screen (no protein target control, 100 nM human vWF A1 domain (SEQ ID NO 5, FIG. 3), or 100 nM rabbit vWF A1 domain (SEQ ID NO 6, FIG. 3). The data is presented in the third and fourth columns of Table 4 below as the ratio of the fraction of the aptamer bound to the nitrocellulose in the presence of the target protein to the fraction of aptamer bound in the absence of the target protein.

Binder | binding signal
B1 | 1.69 ratio to no protein
B2 | 1.55 ratio to no protein
B3 | 1.59 ratio to no protein
B4 | 2.23 ratio to no protein
B5 | 1.76 ratio to no protein
B6 | 1.82 ratio to no protein
B7 | 1.75 ratio to no protein
B8 | 1.79 ratio to no protein

These binders were tested against T2, von Willebrand factor full length (Homo sapiens, UniProt P04275 SEQ:764-2813) (assay: filter; 26% bound at 100 nM vWF). Conditions: tags: Calbiochem 681300; label: 5'-32P.
Method: (§1) For KD determination, chemically synthesized aptamers were purified using denaturing polyacrylamide gel electrophoresis, 5′end labeled with γ-³²P ATP and were tested for direct binding to full length human vWF (Calbiochem Cat.# 681300, La Jolla, Calif.). An 8 point protein titration was used in the dot blot binding assay (100 nM, 30 nM, 10 nM, 3 nM, 1 nM, 300 pM, 100 pM, 0 pM)) in 1× Dulbecco's PBS containing […] (final volume of 50 uL) for 30 minutes at room temperature. KD values were calculated by fitting the equation y=(max/(1+K/protein))+yint using KaleidaGraph (KaleidaGraph v. 3.51, Synergy Software).

Binder | Kd
B9 | 36 nM
B10 | 22.5 nM
B11 | 24 nM

Each binder was assayed against T2, von Willebrand factor full length (assay: filter; 40% bound at 100 nM). Conditions: tags: Calbiochem 681300.
Method: as §1

Binder | Kd
B12 | 0.9 nM
B13 | 3 nM
B14 | 0.6 nM
B15 | 3 nM
B16 | 4 nM

Each binder was assayed against T2, von Willebrand factor full length (assay: filter; 20 nM protein). Conditions: tags: Calbiochem 681300.
Method: (§2) When a significant positive ratio of binding of DNA in the presence of human or rabbit vWF A1 domain versus in the absence of protein was seen, the pools were cloned using the TOPO TA cloning kit (Invitrogen Cat.# 45-0641, Carlsbad, Calif.) according to the manufacturer's instructions. […] All unique clones were assayed twice in a 3-point dot blot screen (no protein target control, 20 nM full length human vWF (Calbiochem Cat.# 681300, La Jolla, Calif.), or 20 nM rabbit vWF A1 domain. The data is presented in the third and fourth columns of Table 17 below as the ratio of the fraction of the aptamer bound to the nitrocellulose in the presence of the target protein to the fraction of aptamer bound in the absence of the target protein.

Binder | binding signal
B17 | 1.05 ratio to no protein
B18 | 1.03 ratio to no protein
B19 | 0.92 ratio to no protein
B20 | 0.76 ratio to no protein
B21 | 0.93 ratio to no protein
B22 | 0.85 ratio to no protein
B23 | 1.06 ratio to no protein

Target: T1, von Willebrand factor A1 domain (rabbit)
Test: filter; 20 nM protein
Conditions: tags: 6xHis
Method: as §2

Binder | binding signal
B17 | 4.4 ratio to no protein
B18 | 3.28 ratio to no protein
B19 | 3.47 ratio to no protein
B24 | 6.04 ratio to no protein
B20 | 3.47 ratio to no protein
B25 | 5.36 ratio to no protein
B21 | 3.59 ratio to no protein
B22 | 4.54 ratio to no protein
B26 | 4.67 ratio to no protein
B23 | 5.77 ratio to no protein

What follows are binders tested against T2, von Willebrand factor full length (assay: filter; 43% bound at 100 nM). Conditions: tags: Calbiochem 681300.
Method: as §1

Binder | Kd
B27 | 2 nM
B28 | 2 nM
B29 | 1 nM
B30 | 6 nM

The binders below were run against T2, von Willebrand factor full length (assay: filter; DPBS, 0.1 mg/mL BSA, RT). Conditions: tags: Calbiochem 681300; label: 5'-32P.
Method: KD values were calculated by fitting the equation y=(max/(1+K/protein))+yint using KaleidaGraph (KaleidaGraph v. 3.51, Synergy Software).

Binder | Kd
B31 | 1 nM
B32 | 10 nM

These binders were tested against T2, von Willebrand factor full length (assay: filter; 46% bound at 100 nM). Conditions: tags: Calbiochem 681300.
Method: as §1

Binder | Kd
B33 | 2 nM
B34 | 2 nM
B35 | 3 nM
B36 | 3 nM
